Experimental data reported in publication PMC2777425.

Target: T1, K752G844 (winged-helix domain) (UniProt Q54324 752-844)
T1 sequence: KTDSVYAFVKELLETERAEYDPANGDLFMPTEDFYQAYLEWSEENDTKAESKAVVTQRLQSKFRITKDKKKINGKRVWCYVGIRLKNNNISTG
Test: fluorescence anisotropy

Binder: TCTTCTGTGCACTCTTC (ssDNA) [17-mer ss]
- apparent K (half saturation): 1600 nM
